Target: Mat1 (230-309) (human, UniProt P51948)
Assay: crystal structure

Mat1 (230-309), sequence (P51948 230-309): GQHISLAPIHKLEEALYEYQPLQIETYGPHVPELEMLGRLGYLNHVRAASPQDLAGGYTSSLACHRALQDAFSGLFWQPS

- binding result: binds
B1: VHH_(RD7-04), construct for co-crystallization (VHH)
VHH: QVQLVESGGGLVQPGGSLRLSCVASGFTFKNFYMGWVRQAPDKGLEWVATINSGGEIQSYADSVKGRFTISRDNAKNTLYLQMNNLRPEDTAVYYCSKQSSTPAKGQGTQVTVSS

From publication PMC10888979 (bioRxiv, 2024)
